Assay results taken from PMC10195141 (Acta Biochimica et Biophysica Sinica, 2023).
Values after ≈ are worked out from the molar mass of the structure shown.

Tests used:
M. mulatta Gal-10 = target: T1, M. mulatta Gal-10 (Macaca mulatta, UniProt A0AA82WNZ0); test: inhibition of hemagglutination of chicken erythrocytes; format: cell-based; conditions: 10 mM Tris-HCl, 150 mM NaCl, pH 7.5, on ice, 60 min; carbohydrate binding site
T1 sequence (A0AA82WNZ0 4-142): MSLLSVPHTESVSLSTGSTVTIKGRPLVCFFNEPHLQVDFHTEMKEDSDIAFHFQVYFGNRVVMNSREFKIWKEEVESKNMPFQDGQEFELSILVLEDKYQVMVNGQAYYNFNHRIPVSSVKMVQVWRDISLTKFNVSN

[1] = target: Macaca fascicularis galectin-10 (Macaca fascicularis); test: SEC
[2] = target: Macaca mulatta galectin-10 (Macaca mulatta); test: SEC

## OC[C@H]1O[C@@H](O[C@H]2[C@H](O)[C@@H](O)C(O)O[C@@H]2CO)[C@H](O)[C@@H](O)[C@H]1O (stereo partly drawn) [lactose]
M. mulatta Gal-10
  MIC: 6.25 mM (≈ 2140 µg/mL)

## Macaca fascicularis galectin-10 (natural protein)
[1]
  stoichiometry N: 2

## Macaca mulatta galectin-10 (natural protein)
[2]
  stoichiometry N: 2
